These results are taken from the supplement of paper PMC10724198.

± gives the standard deviation of the averaged measurements.
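Further: PSI is a weighted mean of sequencing reads over stability bins, variants kept only with over 10 reads, mCherry proximal and sfGFP distal, peptide attached via GGGS linker.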

In this data set the test system is Saccharomyces cerevisiae. Kind of data set: protein stability index of tFT-peptide fusion (C-terminal peptide) (PSI (0-1 scale)); higher = more stable (slower turnover). To be noted: genetic background: wild type; temperature: 30 C. As to the method:
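Multiplexed protein stability (MPS) profiling in S. cerevisiae. Random 12-aa peptides (tFT-X12 library) are fused to the C-terminus of a sfGFP-mCherry tandem fluorescent timer, after mCherry and a GGGS linker. Cells are FACS-sorted into 8 mCherry/sfGFP bins and deep-sequenced. The protein stability index (PSI) is the read-weighted bin average, scaled from 0 (unstable) to 1 (stable). Only peptides with >10 reads are reported; cells were grown at 30 °C in SC-His with glucose.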
In turn, DYCARQRLLDQF yielded a protein stability index of 0.685 ± 0.11.

Take DYPQWWEEQHVP: the protein stability index was found to be 0.797 ± 0.019.

Sequence DYSRCGCRLSGK yielded a protein stability index of 0.677 ± 0.03.

As to EAGESKNVDSLL, the protein stability index was 0.638 ± 0.0081.

In the case of EAIQDCERGPCW, the protein stability index was found to be 0.698 ± 0.0081.

EAKKNNIVEKQR displayed a protein stability index of 0.681 ± 0.015.

EAPRTPPSVPVN: the protein stability index worked out at 0.7866 ± 0.0051.

EAVRASSPAGLP showed a protein stability index of 0.7017 ± 0.0023.

Sequence ECCDSGLCWLTF registered a protein stability index of 0.754 ± 0.034.

ECGRWLGRGVRG displayed a protein stability index of 0.735 ± 0.045.

EDFKTKQKKKKE had a protein stability index of 0.709 ± 0.077.

Take EDKVRGQGSRHN: the protein stability index came to 0.722 ± 0.011.

Consider EDRYIGITRYKD, for which the protein stability index is 0.682 ± 0.11.

On to EDSKLVSRLSRS, for which the protein stability index is 0.712 ± 0.082.

EDTYSGKGSRGV showed a protein stability index of 0.774 ± 0.047.

EEECSTPWGIRG yielded a protein stability index of 0.635 ± 0.048.

EELTVLCGLLKT: the protein stability index is 0.64 ± 0.04.

Regarding EEQKKIRKRPEK, the protein stability index worked out at 0.69686 ± 0.00066.

EERGGDNVTVCG: the protein stability index was found to be 0.745 ± 0.031.

EERLGIIVRSDR came in with a protein stability index of 0.635 ± 0.079.

In turn, EFAYQSRYKVGR gave a protein stability index of 0.694 ± 0.058.

Turning to EFFSDLLEMIRL, the protein stability index is 0.725 ± 0.033.

In turn, EFSILLPLPFFR returned a protein stability index of 0.656 ± 0.076.

The sequence EGDGLGGGGQGG gave a protein stability index of 0.685 ± 0.0069.

Turning to EGDQSRMTQPRG, the protein stability index came to 0.647 ± 0.034.

As for EGGARGCGEGSQ, the protein stability index came out at 0.656 ± 0.015.

As to EGGEWGSFGSAV, the protein stability index was found to be 0.704 ± 0.0094.

In the case of EGGGGGGAPRVR, the protein stability index was 0.752 ± 0.093.

Take EGGGGGPGDARR: the protein stability index came out at 0.663 ± 0.025.

The sequence EGLSYSFGDCPM gave a protein stability index of 0.754 ± 0.03.

EGRAAETFVCAI showed a protein stability index of 0.6429 ± 0.0055.

Regarding EGRSVWVVGRAV, the protein stability index came to 0.652 ± 0.045.

With EGSPIVNSLALD, the protein stability index turned out to be 0.668 ± 0.017.

In turn, EGVCEIEMRGSR returned a protein stability index of 0.788 ± 0.021.

In turn, EGVGGGRWCGRG gave a protein stability index of 0.666 ± 0.055.

In turn, EGVGRGCSGGCW yielded a protein stability index of 0.713 ± 0.055.

For EGYRDMAFKLCK, the protein stability index is 0.697 ± 0.0093.

EHLYIYGKDKWK came in with a protein stability index of 0.602 ± 0.025.

Regarding EHMEYKSMVSCA, the protein stability index was determined as 0.51 ± 0.059.

EHRPCQGVMYII gave a protein stability index of 0.522 ± 0.0026.

EIDMLVVRNLKH came in with a protein stability index of 0.664 ± 0.044.

The sequence EIKGTQRKGGKR came in with a protein stability index of 0.726 ± 0.055.

Sequence EINIMKIIYRKI showed a protein stability index of 0.666 ± 0.044.

EIPGPLALSPAG displayed a protein stability index of 0.736 ± 0.015.

EKCCGAAVMARC returned a protein stability index of 0.561 ± 0.015.

The sequence EKIRSARKKTIH had a protein stability index of 0.735 ± 0.0082.

For EKKEKTPKPKPR, the protein stability index stood at 0.685 ± 0.025.

The sequence EKKKKKKKKKKK registered a protein stability index of 0.7721 ± 0.003.

With EKKKNKTKKKTN, the protein stability index was 0.688 ± 0.056.

Sequence EKKKTKKKTIKK yielded a protein stability index of 0.636 ± 0.03.

Take EKQKGIVQADKI: the protein stability index is 0.665 ± 0.046.

For EKVRICKWKGGI, the protein stability index was 0.616 ± 0.061.

As for EKWMRYLARCDI, the protein stability index was found to be 0.6882 ± 0.0012.

With EKYELHEVEKEI, the protein stability index was determined as 0.597 ± 0.049.

Sequence ELHEETEKSKYR came in with a protein stability index of 0.74 ± 0.11.

ELLTVQLHKAAR: the protein stability index was 0.706 ± 0.0076.

For the sequence ELRLYFPRLFQF, the protein stability index was 0.496 ± 0.0078.

Take ELSLSCPPLETP: the protein stability index is 0.768 ± 0.034.

In turn, ELSRLLPASFSL came in with a protein stability index of 0.696 ± 0.032.

The sequence ELVGGEGIGGGL had a protein stability index of 0.581 ± 0.024.

For EMCRCVEGREEG, the protein stability index amounted to 0.6704 ± 0.0036.

With ENKKKKKNIEKK, the protein stability index amounted to 0.702 ± 0.04.

Consider ENRNKSYEISRP, for which the protein stability index was found to be 0.7015 ± 0.0052.

Sequence EPGLIPVAGTFF yielded a protein stability index of 0.76 ± 0.011.
